Measured values taken from patent US20210261663A1 (JIANGSU HENGRUI MEDICINE, published 2021).

Biological target: T1, human TIM-3 full-length, overexpressed on CHO-S cells (human, UniProt Q8TDQ0 22-301)
T1 construct: also called HAVCR2; Tim-3 overexpressing CHO-S cells
Assay: cell-based ELISA on fixed CHO-S cells overexpressing full-length human TIM-3, HRP secondary antibody, OD450

B1: ABTim-3 (antibody, V domains shown)
VH: QVQLQQPGAELVKPGASVKMSCKASGYTFTSYNMHWIKQTPGQGLEWIGDIYPGNGDTSYNQKFKGKATLTADKSSSTVYMQLSSLTSEDSAVYYCARVGGAFPMDYWGQGTSVTVSS
VL: DIVLTQSPASLAVSLGQRATISCRASESVEYYGTSLMQWYQQKPGQPPKLLIYAASNVESGVPARFSGSGSGTDFSLNIHPVEEDDIAIYFCQQSRKDPSTFGGGTKLEIK
EC50 (read off the curve): ~0.1 nM
